The supplement of paper PMC10724198
± gives the standard deviation of the averaged measurements.

Test system: Saccharomyces cerevisiae
Test: protein stability index of tFT-peptide fusion (C-terminal peptide) (PSI (0-1 scale)); higher = more stable (slower turnover)
Conditions: temperature: 30 C
Protocol: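 MPS profiling in S. cerevisiae of the yeast C-terminome library: the last 12 aa of each annotated ORF are fused to the C-terminus of a sfGFP-mCherry timer, after a GGGS linker. Cells are FACS-sorted into 8 mCherry/sfGFP bins and deep-sequenced. PSI runs from 0 (unstable) to 1 (stable); wild type and das1Δ backgrounds, two technical replicates each.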

[1] = genetic background: das1 deletion

Sequence | protein stability index [1] | protein stability index (genetic background: wild type)
SGYSFNGSYGKS [WHI4 C-terminal 12 aa] | 0.671 ± 0.0029 | 0.659 ± 0.022
LENLSQEYCSEI [YBR096W C-terminal 12 aa] | 0.715 ± 0.029 | 0.72 ± 0.023
ENRPGPYEFRET [FMP41 C-terminal 12 aa] | 0.6916 ± 0.0065 | 0.779 ± 0.053
GVLLILASALFT [ZRT3 C-terminal 12 aa] | 0.3294 ± 0.0016 | 0.341 ± 0.0088
IKNTGDLLKLYK [ALK1 C-terminal 12 aa] | 0.685 ± 0.021 | 0.647 ± 0.0085
LNLPVQVEKKEK [MMR1 C-terminal 12 aa] | 0.69221 ± 0.00034 | 0.692 ± 0.013
AKTSLYTATVIS [PAC11 C-terminal 12 aa] | 0.636 ± 0.015 | 0.6331 ± 0.006
IFHQLQKKINRS [IWR1 C-terminal 12 aa] | 0.703 ± 0.0083 | 0.6656 ± 0.0027
EDITVQVPDTPT [EST1 C-terminal 12 aa] | 0.708 ± 0.017 | 0.674 ± 0.017
LKGILNLFSKIR [KRE29 C-terminal 12 aa] | 0.671 ± 0.0078 | 0.699 ± 0.025
ANGTSPGVHVRE [IRC15 C-terminal 12 aa] | 0.693 ± 0.0096 | 0.678 ± 0.017
QAERQLYDAYFH [YFL064C C-terminal 12 aa] | 0.732 ± 0.023 | 0.733 ± 0.038
ELAKKWKQEQAL [CLF1 C-terminal 12 aa] | 0.676 ± 0.011 | 0.667 ± 0.011
EKLISLSQSMEN [ATP11 C-terminal 12 aa] | 0.718 ± 0.0096 | 0.785 ± 0.11
NNKSIQKVNSPS [PAC2 C-terminal 12 aa] | 0.709 ± 0.0075 | 0.807 ± 0.035
PIRRQFYLNSRQ [YML047W-A C-terminal 12 aa] | 0.701 ± 0.011 | 0.691 ± 0.017
EFDDYESRMHGI [EAR1 C-terminal 12 aa] | 0.73 ± 0.029 | 0.694 ± 0.0086

Sequence | protein stability index [1] | protein stability index (genetic background: wild type)
PVIYGLPIKFVS [ESP1 C-terminal 12 aa] | 0.7014 ± 0.0052 | 0.389 ± 0.0063
LCEFLKGVQSAL [DAK1 C-terminal 12 aa] | 0.7137 ± 0.005 | 0.683 ± 0.011
IVILIFDRLLSN [YGL081W C-terminal 12 aa] | 0.394 ± 0.021 | 0.425 ± 0.03
KNFQEHLRSING [AGC1 C-terminal 12 aa] | 0.695 ± 0.01 | 0.702 ± 0.032
QRTQAICIDKKW [YJL135W C-terminal 12 aa] | 0.697 ± 0.014 | 0.6986 ± 0.0032
FSDLFSYSKSLV [ENT5 C-terminal 12 aa] | 0.705 ± 0.04 | 0.744 ± 0.013
LWNEFLSSINEK [ECM31 C-terminal 12 aa] | 0.736 ± 0.036 | 0.743 ± 0.06
TLSYIRVHKLVK [TYC1 C-terminal 12 aa] | 0.647 ± 0.019 | 0.493 ± 0.015
SKASLINKLIGN [NTR2 C-terminal 12 aa] | 0.685 ± 0.011 | 0.7 ± 0.013
GSNNRGYTLIDL [ENT1 C-terminal 12 aa] | 0.698 ± 0.015 | 0.736 ± 0.029
KDELERVAKSNR [RPS5 C-terminal 12 aa] | 0.6889 ± 0.0032 | 0.694 ± 0.017
VRGRKSRNTSRV [REP2 C-terminal 12 aa] | 0.711 ± 0.013 | 0.755 ± 0.035
PAAVFTETLKHD [RPL4A C-terminal 12 aa] | 0.7 ± 0.016 | 0.7 ± 0.022
LDVVKSRGSKHS [HSU1 C-terminal 12 aa] | 0.7099 ± 0.003 | 0.7 ± 0.062
TTTEVETETAKQ [YPR063C C-terminal 12 aa] | 0.679 ± 0.011 | 0.7 ± 0.027
SLGGDVHSRRCS [ROQ1 C-terminal 12 aa] | 0.7013 ± 0.0028 | 0.662 ± 0.018
PQDKPAGQSIWL [HRR25 C-terminal 12 aa] | 0.6795 ± 0.00075 | 0.6948 ± 0.0048
